Experimental data from the RNAGym collection of RNA variant scans (doi:10.1073/pnas.2313332121).

B1: TPR t1 (parent)
chain: GACCAAUCUGCCCUCAGAGCUCGAGAACAUCUUCGGAUGCAGAGGAGGCAGGCUUCGGUGGCGCGAUAGCGCCAACGUCCUCAACCUCCAAUGCAUCCCACCACAUGAUGAUGCCUGAAGAGCCUUGGUUUUUUG

Variants of: B1
Assay: polymerase ribozyme fitness, log enrichment relative to wild type (log ratio); higher = more active; in vitro selection for triplet polymerase activity
Procedure, shortened: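 Only genotypes with ≥10 input reads and ≥1 read per output were kept after Illumina sequencing of input and output libraries. These libraries were PCR-built, transcribed mutants of each subunit of a heterodimeric triplet polymerase ribozyme, each put through one triplicate in vitro selection round with frozen incubation at −7 °C, gel excision of extended constructs, streptavidin-bead capture and RT-PCR. Fitness is a logarithmic ratio of genotype enrichment to wild-type enrichment, from inverse-variance-weighted replicate averages, with the logarithm in base 2.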

Variant	polymerase ribozyme fitness (log ratio)
GAUCAAUCUGCCCUCAGAGCUCGAGAACAUCUUCGGAUGCACAGGAGGCAGGCUUCGGUGGCGCGAUAGCGCCAACGUCCUCAACCUCCACUGCAUCCCACCACAUGAUGAUGCCUGAAGAGCCUUGGUUUUUUG [C3U G42C A91C]	-2.67
GAUCAAUCUGCCCUCAUAGCUCGAGAACAUCUUCGGAUGCAGAGGAGGCAGGCUUCGGUGGCUCGAUAGCGCUAACGUCCUCAACCUCCAAUGCAUCCCACCACAUGAUGAUGCCUGAAGAGCCUUGGUUUUUUG [C3U G17U G63U C73U]	-4.23
GAUCAAUCUGCCCUCAGAGCUCGAGAACAUCUUCGGAUGCAGAUUAGGCAGGCUUCGGUGGCUCGAUAGCGCCAACGUCCUCAACCUACAAUGCAUCCCACCACAUGAUGAUGCCUGAAGAGCCUUGGUUUUUUG [C3U G44U G45U G63U C88A]	-2.78
GAUCAAUCUGCCCUCAGAGCUCAAGAACAUCUUCGGAUGCAGAGGAGGCAGGCUUCGGUGGCGCGAUAGCGCCAACGUCCUCAACCUCCAAUGCAUCCCACCACAUGAUGAUGCCUGAAGAGCCUUGGUUUUUUG [C3U G23A]	-5.54
GAUCAAUCUGCCCUCAGAGCUCGAGAACAUCUUCGGAUGCAUAGGAGGCAGGCUUGGGUGGCGCGAUAGCGCCAACGUCCUCAACCUCCAAUGCAUCCCACCACAUGAUGAUGCCUGAAGAGCCUUGGUUUUUUG [C3U G42U C56G]	-2.49
GAUCAAUCUGCCCUCAGAGCUCGAGAACAUCUUCGGAUAUAGAGGAGGCAGGCUUCGGUCGCGCGAUAGCGCCAACGUCCUCAACCUCCAAUGAAUCCCACCACAUGAUGAUGCCUGAAGAGCCUUGGUUUUUUG [C3U G39A C40U G60C C94A]	-2.98
GAUCAAUCUGCCCUCAGAGCUCGAGAACAUCUUCGGAUGCAUAGGAGGCAGGCUUCGGUGGCGCGAUAGCGCCAACGUCCUCAACCUCCAAUGCAUCCCACCACAUGAUGAUGCCUGAAGAGCCUUGGUUUUUUG [C3U G42U]	-1.55
GAUCAAUCUGCCCUCAGAGCUCGAGAACAUCUUCGGAUGCAGAGCAGGCAGGCUUCGGUGACGCGAUAGCGCCAACGUCCUCAACCUCCAAUGCAUCCCACCACAUGAUGAUGCCUGAAGAGCCUUGGUUUUUUG [C3U G45C G61A]	0.0995
GAUCAAUCUGCCCUCAGAGCUCGAGAACAUCUUCGGAUGCAGAUGAGGCAGGCUUCGGUGGCGCGAUAGCGCGAACGUCCUCAACCUCCAAUGCAUCCCACCACAUGAUGAUGCCUGAAGAGCCAUGGUUUUUUG [C3U G44U C73G U125A]	-2.29
GAUCAAUCUGCCCUCAGAGCUCGAGAACAUCUUCUGAUGCAGAGGAGGCAGGCUUCGGUGGCGCGAUAGAGCCAACGUCCUCAACCUCCAAUGCAUCCAACCACAUGAUGAUGCAUGAAGAGCCUUGGUUUUUUG [C3U G35U C70A C99A C115A]	-4.32
GAUCAAUCUGCCCUCAGAGCUCGAGAACAUCUUCGGAUUCAGAGGAGGCAGGCUUCGGUGACGCGAUAGCGCCAACGUCCUCAACCUCCAAUCCAUCCCAACACAUGAUGAUGCCUGAAGAGCCUUGGUUUUUUG [C3U G39U G61A G93C C101A]	-3.7
GAUCAAUCUGCCCUCAGAGCUCGAGAACAUCUUCGGAUGCAGAGAAGGCAGGCUUCGGUGGCGCGAUAGCACCAACGUUCUCAACCUCCAAUGCAUCCCACCACAUGAUGAUGCCUGAAGAGCCUUGGUUUUUUG [C3U G45A G71A C79U]	-1.81
GAUCAAUCUGCCCUCAGAGCUCGAGAACAUCUUCGGAUGCAGAUGAGGCAGGCUUCGGUGGCGCGAUAGCGCCAACGUCCUAAACCUCCAAUGCAUCCCACCACAUGAUGAUGCCUGAAGAGCCUUGGUUUUUUG [C3U G44U C82A]	-1.68
GAUCAAUCUGCCCUCAGAGCUCGAGAACAUCUUCGGAUGCAGACGUGGCAGGCUUCGGUGGCGCGAUAGCGCCAACGUCCUCAACCUCCAAUGCAUCCCACCACAUGAUAAUGCCUGAAGAGCCUUGGUUUUUUG [C3U G44C A46U G110A]	-2.98
GAUCAAUCUGCCCUCAGAGCUCGAGAACAUCUUCGGAUUCAGAGGAGGCAGGCUUCGGUGGCGCGAUAGCGCCAACGUCCCCAACCUCCAAUGCAUCCCACCACAUGAUGCUGCCUGAAGAGCCUUGGUUUUUUG [C3U G39U U81C A111C]	-2.34
GAUCAAUCUGCCCUCAGAGCUCGAGAACAUCUUCGGAUACAGAGGAGGCAGGCUUCGGUGGCGCGAUAACGCCAACGUCCUCAACCUCCAAUGCAUCCCACCACCUGAUGAUGCCUGAAUAGCCUUGCUUUUUUG [C3U G39A G69A A105C G120U G128C]	-6.86
GAUCAAUCUGCCCUCAGAGCUCGAGAACAUCUUCGCAUGCAGAGGAGGCAGGCUUCGCUGGCGCGAUAGCGCCAACGUCCUCAACCUCCAAUGCAUCCCACCACAUGAUGAGGCCUGAAGAGCCUUGGUUUUUUG [C3U G36C G58C U112G]	-0.836
GAUCAAUCUGCCCUCAGAGCUCGAGAACAUCUUCGGAUACAGAGGAGGCAGGCUUCGGUGGCGCGAUAUCGCCAACGUCCUCAACCUCCAAUGCAUCCCACCACCUGAUGAUGCCUGAAUAGCCUUGCUUUUUUG [C3U G39A G69U A105C G120U G128C]	-3.77
GAUCAAUCUGCCCUCAGAGCUCGAGAACAUCUUCGGAUGCAGAGAAGGCAGGCUUCGGUGUCGCGAUAGCGCCAACGUCCUCAACCUCCAAUGCAUCCCUCCACAUGAUGAUGCCUGAAGAGCUUUGGUUUUUUG [C3U G45A G61U A100U C124U]	0.286
GAUCAAUCUGCCCUCAGAGCUCGAGAACAUCUUCGGAUGCAGAUGAGGCAGGCUUCGGUGGCGCGAUAGCGCCAACGUCCUCAACCUCCAAUGCAUCCCACCACAUGAUGAUGCCUGAAGAGCCUUGGUUUUUUG [C3U G44U]	-1.62
GAUCAAUCUGCCCUCAGAGCUCGAGAACAUCUUCGGAUGCAGAAGAGGCAGGCUUCGGUGGCGCGAUAGCGCCAACGUCCUCAACCUCCAAUGCAUCCCACCACAUGAUGAUGCCUGAAGAGCCUUGGUUUUUUG [C3U G44A]	-1.11
